Numbering of substitutions follows the chain as printed.
B1: R2N90: microbial HemY protoporphyrinogen oxidase, SEQ ID NO:4 (protein, listed as Bacillus pumilus)
chain: MHDNQKHLVIIGGGITGLAAAFYLEKEVEEKGLPIQISLIEASPRLGGKIQTLYKDGYIIERGPDSFLERKVSGPQLAKDVGLSDQLVNNETGQAYVLVNEKLHPMPKGAVMGIPTQISPFITTGLFSVAGKARAAMDFVLPKSKQTEDQSLGEFFRRRVGDEVVENLIEPLLSGIYAGDIDRLSLMSTFPQFYQTEQQHRSLILGMKKSQQHAKAQQVTAKKQGQFQTINQGLQSLVEAVEGKLKLTTVYKGTKVKQIEKTDGGYGLQLDSGQTLFADSAIVTTPHQSIYSMFPKEAGLEYLHDMTSTSVATVALGFKDEDVHNEYDGTGFVISRNSDFSITACTWTNKKWPHTAPKGKTLLRAYVGKAGDESIVEQSDSQIVSIVLEDLKKIMDIKADPELTTVTRWKTSMPQYHVGHQKAISNMRETFKQSYPGVYITGAAFEGVGIPDCIDQGKAAISEAVSYLFS
B2: R2N100: microbial HemY protoporphyrinogen oxidase, SEQ ID NO:5 (protein, listed as Bacillus pumilus)
chain: B1 chain with K102T, Q199K, S236A, G243S, V250I, L268V, F277L, D320E, S381H

Legend:
[1] = system: transgenic soybean plants; test: S-3100 tolerance of transformed soybean plantlets at five weeks; type: in vivo; design: key to Tolerance score to S-3100 at 5 weeks: 0 for poor tolerance, high damage, low green coloration; 1 for some tolerance, average damage, moderate green coloration; 2 for good tolerance, low damage, high green coloration; conditions: for tolerance to the PPO herbicide in high-throughput screening at five weeks: S-3100, over the constructs with different transit peptides; for Tolerance score to S-3100 at 5 weeks: day four post application
Method: The microbial HemY PPO enzymes were expressed in transgenic soybean plants, and the transgenic plants were analyzed for PPO herbicide tolerance. […] For plant transformation, the nucleotide sequences encoding the HemY PPO enzymes were codon optimized for dicot expression. This permitted the side-by-side comparison of the seven different HemY PPO enzymes with thirty-nine different targeting peptides using the same promoter and 3′UTR elements for gene expression
The plant transformation constructs were used to transform soybean excised embryos (germplasm A3555) using A. tumefaciens and standard methods known in the art. Four hundred explants were inoculated for each construct resulting in twelve containers per construct. A sterile PPO herbicide solution was used for herbicide tolerance testing. The herbicide solution consisted of 0.3 g of S-3100 in crop oil concentrate (5.0 mL) and 495 mL of deionized water. This was filtered through a 0.45 micron Nalgene® Rapid-Flow™ Tissue Culture Filter Unit and Surfactant-Free Cellulose Acetate membrane filter unit (VWR, Radnor, Pa., USA). The resulting sterile solution was shaken before application.
At five weeks post-transformation, four of the twelve plant containers per construct were sprayed with two passes of the sterile PPO herbicide solution. The treated plantlets were then enclosed in the container and received at least 15 hours of light exposure post spray each day for four days. At the end of day four post application of S-3100, the treated plantlets were photographed and scored on a visual scale of green coloration (green coloration was representative of healthy photosynthetic plant tissue as compared to photo-bleached tissue) versus damage. The scoring values were 0 for poor tolerance, high damage, low green coloration; 1 for some tolerance, average damage, moderate green coloration; and 2 for good tolerance, low damage, high green coloration. The results of herbicide application of S-3100 at five weeks is presented in Table 5, where n.d. indicates the analysis was not conducted.

[2] = PPO enzyme assay, apparent Km for substrate; type: biochemical; conditions: substrate protoporphyrinogen
[3] = system: hemG knockout E. coli strain; type: cell-based; conditions: acifluorfen and S-3100

| Molecule | tolerance to the PPO herbicide in high-throughput screening at five weeks [1] | Tolerance score to S-3100 at 5 weeks ([1]; targeting peptide TP2) | Tolerance score to S-3100 at 5 weeks ([1]; targeting peptide TP5) | Tolerance score to S-3100 at 5 weeks ([1]; targeting peptide TP8) | Tolerance score to S-3100 at 5 weeks ([1]; targeting peptide TP10) | Tolerance score to S-3100 at 5 weeks ([1]; targeting peptide TP12) | Tolerance score to S-3100 at 5 weeks ([1]; targeting peptide TP14) | Tolerance score to S-3100 at 5 weeks ([1]; targeting peptide TP18) | Tolerance score to S-3100 at 5 weeks ([1]; targeting peptide TP19) | Tolerance score to S-3100 at 5 weeks ([1]; targeting peptide TP21) | Tolerance score to S-3100 at 5 weeks ([1]; targeting peptide TP22) | Tolerance score to S-3100 at 5 weeks ([1]; targeting peptide TP23) | Tolerance score to S-3100 at 5 weeks ([1]; targeting peptide TP24) | Tolerance score to S-3100 at 5 weeks ([1]; targeting peptide TP27) | Tolerance score to S-3100 at 5 weeks ([1]; targeting peptide TP28) | Tolerance score to S-3100 at 5 weeks ([1]; targeting peptide TP29) | Tolerance score to S-3100 at 5 weeks ([1]; targeting peptide TP30) | Tolerance score to S-3100 at 5 weeks ([1]; targeting peptide TP31) | Tolerance score to S-3100 at 5 weeks ([1]; targeting peptide TP32) | Tolerance score to S-3100 at 5 weeks ([1]; targeting peptide TP33) | further results |
| --- | --- | --- | --- | --- | --- | --- | --- | --- | --- | --- | --- | --- | --- | --- | --- | --- | --- | --- | --- | --- | --- |
| B1 | did not provide tolerance | 0 | 0 | 1 | 0 | 1 | 0 | 1 | 1 | 1 | 0 | 1 | 0 | 0 | 0 | 0 | 0 | 0 | 0 | 0 | Tolerance score to S-3100 at 5 weeks ([1]; targeting peptide TP9): 1; Tolerance score to S-3100 at 5 weeks ([1]; targeting peptide TP13): 0; Tolerance score to S-3100 at 5 weeks ([1]; targeting peptide TP16): 0; Tolerance score to S-3100 at 5 weeks ([1]; targeting peptide TP20): 0; Km [2]: 2.8 µM; growth rate of hemG knockout E. coli strain in presence of PPO herbicide [3]: slower; tolerance to acifluorfen and S-3100 compared with strain containing R2N30 or R2N40 [3]: much better |
| B2 | did not provide tolerance | 0 | 0 | 1 | 1 | 0 | 1 | 1 | 1 | 0 | 0 | 0 | 0 | 0 | 1 | 0 | 0 | 1 | 0 | 0 | Tolerance score to S-3100 at 5 weeks ([1]; targeting peptide TP1): 0; Tolerance score to S-3100 at 5 weeks ([1]; targeting peptide TP3): 0; Tolerance score to S-3100 at 5 weeks ([1]; targeting peptide TP4): 0; Tolerance score to S-3100 at 5 weeks ([1]; targeting peptide TP6): 0; Tolerance score to S-3100 at 5 weeks ([1]; targeting peptide TP15): 0; Tolerance score to S-3100 at 5 weeks ([1]; targeting peptide TP17): 0; Tolerance score to S-3100 at 5 weeks ([1]; targeting peptide TP25): 0; Tolerance score to S-3100 at 5 weeks ([1]; targeting peptide TP26): 1; Tolerance score to S-3100 at 5 weeks ([1]; targeting peptide TP36): 0; Tolerance score to S-3100 at 5 weeks ([1]; targeting peptide TP37): 0; Km [2]: 0.4 µM; growth rate of hemG knockout E. coli strain in presence of PPO herbicide [3]: slower; tolerance to acifluorfen and S-3100 compared with strain containing R2N30 or R2N40 [3]: much better |

From patent US11319551B2, “Methods and compositions for PPO herbicide tolerance in plants” (Monsanto Technology LLC, priority 2015, dated 2022)
